# Laboratory results as given in patent publication US20260265348A1.
# Biological target: recombinant HSV-2G glycoprotein B (gB) ectodomain (aa 22-724), trimeric (HSV-2 strain G)
# Assay: bio-layer interferometry (Octet), dilution series on HSV-2 recombinant gB
binder,measurement,value
"HDIT102(H4), fully human IgG1 anti-HSV gB antibody (antibody, V domains shown) VH: EVQLVQSGAEVKTPGASVRVSCKASGHTFRTFDINWVRQAAGQGLEWMGWMSPNSGNTGYARQFQGRVTMTRNISANTAYMELRGLRFDDTAVYYCARGPGSTGTTGSMDVWGQGTTVTVSS VL: QAGLTQPPSVSVAPGKTARISCGGNNIGSKSVHWYQQKPGQAPVLVIYYDSDRPSGIPERFSGSNSGNTATLTISRVEAGDEADYYCQVWDSGSVVFGGGTKLTVLG",Kd,< 1 pM
same,koff,< 1e-07 s⁻¹
same,kon,727000 M⁻¹ s⁻¹
